Here are results for six molecules from paper doi:10.1101/2021.12.16.472899 (bioRxiv, 2021).

The chains are these.
B2: PnsB4 (natural protein, UniProt Q8RXS1 25-175, looked up)
chain: QNSGPNHGYWLSKNVNEKRERNLMRGSLCVRKALPHDLPLMAVMVQQIEGMRDIITEKHVWHLSDKAIKNVYMFYIMFTCWGCLYFGSAKDPFYDSEEYRGDGGDGTGYWVYETQEDIEEKARAELWREELIEEIEQKVGGLRELEEAVTK
B6: PnsB5 (natural protein, UniProt Q9FG89 49-212, looked up)
chain: AAGLSQIEPDINEDPIGQFETNSIEMEDFKYGYYDGAHTYYEGEVQKGTFWGAIADDIAAVDQTNGFQGLISCMFLPAIALGMYFDAPGEYLFIGAALFTVVFCIIEMDKPDQPHNFEPQIYKLERGARDKLINDYNTMSIWDFNDKYGDVWDFTIEKDDIATR

Common to all, as to experiment: cryo-EM structure
For experiment [1], the target named is T1, PnsL1 (Arabidopsis thaliana (endogenous in the …, UniProt O80634 81-238)).
T1 sequence (looked up): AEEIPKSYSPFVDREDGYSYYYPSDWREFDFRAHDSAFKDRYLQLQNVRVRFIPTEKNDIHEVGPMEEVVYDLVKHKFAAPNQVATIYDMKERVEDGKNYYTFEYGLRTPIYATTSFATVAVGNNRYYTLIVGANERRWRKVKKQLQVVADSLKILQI

Experiment [2] addresses T2, PnsL2 (Arabidopsis thaliana (endogenous in the …, UniProt Q9XI73 69-190)).
T2 sequence (looked up): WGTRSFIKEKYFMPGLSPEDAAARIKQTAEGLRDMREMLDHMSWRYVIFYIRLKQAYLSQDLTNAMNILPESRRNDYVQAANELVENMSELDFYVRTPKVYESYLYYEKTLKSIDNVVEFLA

Experiment [3] addresses T3, PnsB1 (Arabidopsis thaliana (endogenous in the …, UniProt Q9S9N6 45-461)).
T3 sequence (looked up): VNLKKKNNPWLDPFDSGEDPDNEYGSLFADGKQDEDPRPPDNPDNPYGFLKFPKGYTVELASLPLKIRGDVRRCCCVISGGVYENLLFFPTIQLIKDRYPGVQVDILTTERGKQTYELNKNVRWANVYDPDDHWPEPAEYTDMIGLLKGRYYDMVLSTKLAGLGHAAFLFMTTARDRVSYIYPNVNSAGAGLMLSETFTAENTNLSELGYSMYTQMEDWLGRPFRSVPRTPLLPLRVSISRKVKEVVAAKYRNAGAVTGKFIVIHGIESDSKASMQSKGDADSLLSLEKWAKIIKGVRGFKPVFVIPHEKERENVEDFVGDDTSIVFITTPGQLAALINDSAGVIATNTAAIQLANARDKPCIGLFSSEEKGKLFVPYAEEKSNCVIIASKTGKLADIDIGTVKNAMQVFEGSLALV

The target of experiment [4] is B6.
Experiment [5] has as its target T4, NdhD (Arabidopsis thaliana (endogenous in the …, UniProt P26288 1-500)).
T4 sequence (looked up): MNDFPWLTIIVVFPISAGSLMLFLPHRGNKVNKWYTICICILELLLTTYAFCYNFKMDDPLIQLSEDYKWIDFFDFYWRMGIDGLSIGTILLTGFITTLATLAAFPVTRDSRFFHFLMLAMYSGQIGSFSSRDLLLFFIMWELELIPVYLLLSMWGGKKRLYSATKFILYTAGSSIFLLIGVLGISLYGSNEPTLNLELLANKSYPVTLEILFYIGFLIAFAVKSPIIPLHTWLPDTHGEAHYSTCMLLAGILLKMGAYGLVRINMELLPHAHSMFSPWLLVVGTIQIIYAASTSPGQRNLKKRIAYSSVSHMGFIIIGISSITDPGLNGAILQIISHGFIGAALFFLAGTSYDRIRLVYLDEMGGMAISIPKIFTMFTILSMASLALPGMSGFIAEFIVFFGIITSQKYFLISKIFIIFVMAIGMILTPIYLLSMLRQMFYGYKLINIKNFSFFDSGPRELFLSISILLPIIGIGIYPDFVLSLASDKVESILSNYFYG

The target in experiment [6] is T5, Lhca5 (Arabidopsis thaliana (endogenous in the …, UniProt Q9C639 33-256)).
T5 sequence (looked up): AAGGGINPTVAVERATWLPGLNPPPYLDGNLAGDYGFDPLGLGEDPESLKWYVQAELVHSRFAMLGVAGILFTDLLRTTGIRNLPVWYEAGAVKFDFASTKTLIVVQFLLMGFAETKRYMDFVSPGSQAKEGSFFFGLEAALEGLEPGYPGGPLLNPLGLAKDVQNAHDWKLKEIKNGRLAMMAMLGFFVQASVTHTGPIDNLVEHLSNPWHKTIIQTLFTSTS

In experiment [7] the target is B2.
Experiment [8] has as its target NdhF (Arabidopsis thaliana (endogenous in the …, UniProt P56752 1-746)).
Experiment [9] deals with T6, Lhca6 (Arabidopsis thaliana (endogenous in the …, UniProt Q8LCQ4 34-270)).
T6 sequence (looked up): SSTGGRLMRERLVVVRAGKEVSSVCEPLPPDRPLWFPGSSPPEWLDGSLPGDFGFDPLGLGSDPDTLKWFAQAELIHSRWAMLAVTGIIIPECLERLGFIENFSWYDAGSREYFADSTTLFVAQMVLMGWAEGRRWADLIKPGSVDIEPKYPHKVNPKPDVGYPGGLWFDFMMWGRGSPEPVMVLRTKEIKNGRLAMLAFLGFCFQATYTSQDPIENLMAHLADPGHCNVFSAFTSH

Chain of NdhF (Arabidopsis thaliana (P56752 whole entry): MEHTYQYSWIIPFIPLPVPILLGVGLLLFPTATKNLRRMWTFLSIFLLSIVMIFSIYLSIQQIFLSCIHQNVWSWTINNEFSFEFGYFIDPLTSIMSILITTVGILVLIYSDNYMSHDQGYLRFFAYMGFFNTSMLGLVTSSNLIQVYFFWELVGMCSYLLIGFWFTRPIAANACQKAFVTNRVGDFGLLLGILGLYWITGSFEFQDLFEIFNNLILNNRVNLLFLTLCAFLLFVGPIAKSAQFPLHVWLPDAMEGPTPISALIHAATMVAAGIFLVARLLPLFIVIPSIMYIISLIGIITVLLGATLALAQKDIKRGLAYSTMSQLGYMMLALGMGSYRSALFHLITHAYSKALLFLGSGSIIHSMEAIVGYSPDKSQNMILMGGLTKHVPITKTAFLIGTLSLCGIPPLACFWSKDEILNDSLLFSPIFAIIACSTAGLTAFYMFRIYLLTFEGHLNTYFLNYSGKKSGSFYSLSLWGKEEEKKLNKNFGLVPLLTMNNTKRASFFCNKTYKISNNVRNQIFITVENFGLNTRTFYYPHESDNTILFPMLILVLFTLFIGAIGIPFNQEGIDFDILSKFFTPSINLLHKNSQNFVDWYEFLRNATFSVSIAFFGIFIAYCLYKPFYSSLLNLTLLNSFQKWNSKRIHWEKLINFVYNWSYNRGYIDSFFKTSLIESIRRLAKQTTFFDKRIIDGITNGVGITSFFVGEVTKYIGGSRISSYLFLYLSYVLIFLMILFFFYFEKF

B1: NdhC (natural protein, UniProt P56751 1-120, looked up)
chain: MFLLYEYDIFWAFLLISSAIPVLAFLISGVLSPIRKGPEKLSSYESGIEPIGDAWLQFRIRYYMFALVFVVFDVETVFLYPWAMSFDVLGVSAFIEAFIFVLILILGLVYAWRKGALEWS
For the molecule B1, the binding result in [1] and in experiment [2] was “binds” in each case.
For B2, the binding result in experiment [3], in experiment [4] and in experiment [5] was “binds” throughout.

B3: NdhE (natural protein, UniProt P26289 1-101, looked up)
chain: MILEHVLVLSAYLFLIGLYGLITSRNMVRALMCLELILNAVNMNFVTFSDFFDNSQLKGEIFCIFVIAIAAAEAAIGLAIVSSIYRNRKSIRINQSTLLNK
As to B3, the binding result in [1] and in experiment [2] was “binds” throughout.

B4: Lhca1 (natural protein, UniProt Q01667 36-241, looked up)
chain: AGNVGRIRMAAHWMPGEPRPAYLDGSAPGDFGFDPLGLGEVPANLERYKESELIHCRWAMLAVPGILVPEALGYGNWVKAQEWAALPGGQATYLGNPVPWGTLPTILAIEFLAIAFVEHQRSMEKDPEKKKYPGGAFDPLGYSKDPKKLEELKVKEIKNGRLALLAFVGFCVQQSAYPGTGPLENLATHLADPWHNNIGDIVIPFN
Turning to B4, the binding result in experiment [6] was “binds”.

B5: PnsL3 (natural protein)
chain: not shown
B5: the binding result in [7], in [5] and in [8] was “binds” in each case.
In the case of B6, the binding result in [3], in experiment [9] and in experiment [5] was “binds” each time.
